B1: His‐BmGtsf1L (natural protein, Bombyx mori)
chain: MDDPFVSCPYNPIHRVPRSRLQRHIVKCEWINPTMIACPYNATHRYTQEDMKFHVLNCPSKTSIFPIEKPPKTVASITTPKIILQKEYLPETDPNHEIWDD
notes: BmGtsf1L, Bombyx mori; pET28a, thrombin site after the His6 tag; also called His6‐thrombin‐BmGtsf1L; recombinant BmGtsf1L; source: E. coli BL21 DE3 codon+, purified (HisTrap, gel filtration); not shown: His6, N-terminal, kept
B2: GST‐BmVreteno‐L (natural protein, Bombyx mori)
chain: MSNHSRPQRRREWDPMRDDFNEHTYDVQYADDNAGEQVQLDHTKLYIINIPRGLSEDGIRAAFSKHGKVLSARLSKNPNKRFAIVQFETASEAKLAMMKMNGSEPLNLKISIAHKTIRKTQHDNKDRNYSTSRNGHCSRDEASSISSKGWNMRNLDDVMNNDEIDEIDDMIHEDHDDNLDLELDMLTLKQLKIKEEQLMCKRRLLLRHAEKRQVAPHSSAGRSVLPDGRIVVRNNANETDSAEVEPSFAGAGSESLKTPGLERNASRQCVKCGAPADWYCSRCAITPYCSQTCQTRDWTERHKSVCHYLAPLKTAGGFEAEATSSKSVSNSTPMRSSHSPPTKQQRGEADETDNKAKNIQEPRQNYHRPSNSGPNKNIPGKNQDPRRPATSREAIEEETEERGARNPKPAEATKDKHHPMNPVTFQRRQLKSNPVVDAQPAPREQQQPAATRAPEASPTEQRESTRRTLVPDRCLIDSLSEGDVVLVSVELKASECCTKQGGYVCLSMHEKYESDYQKLCEDYVLDCEADSDEYKIITGDTFSYLSPEDGGWYRARALNTTMAALLDGSKVVYLRMNDKVKKLPAKYSGIPEFCCVLNADVEVGLNLKCSLLSKTPNGFKVTLENVETEANVGEGEITRWIPEVDYPPPVKNVPVQRSVEIPEVPRPEIKNKSRVILVDATDVQRVFVRPADTRSQKAFDNILQDVLLYGTTAEPLKEPPSKGQTVVSKYTDNLHYRALCKRTSVNKNKYLLEYIEYGNIEITQLNRLYPCPEHLSVTSLASLTSHVQLDTTVGELTPRALEYIETIKEEEMILTLSSGGDTAQSGAALVNLTLVKNNDNVNKRIEELCTPEWKKLELKGVDVIETERLMYGTALDYIELPAAPFDLQVLDEVGLDSGNISGCPTNSDYVRYVMTKLPARMREYCESEFGRQPYLPAAEELCIAQLPPSSEWHRAVVLEQILGPGGGTARVLFVDHGNVAEVPVSSLRKMLAEFVTDLPAVACQIVIEDFPKQATAEMLAKARRFMSGPDKARAAQLPVRGCDKQDVGIYAIRVPELLEAMTE
notes: BmVreteno Long isoform, Bombyx mori; pGEX-6p vector, 3C site between GST and BmVreteno; the purified protein was associated with nucleic acids; also called GST‐3C‐BmVreteno; full‐length BmVreteno‐L; source: E. coli BL21 DE3 codon+, purified (GSTrap, gel filtration); not shown: GST, N-terminal, kept

Series [1] concerns the target B2. The series can be described thus: pull-down; GSH pull-down: 5 μM GST-BmVreteno (or fragment, variant) on Glutathione Sepharose 4B with 10 μM His-BmGtsf1L, 2 h 4°C, PBS with 0.1% Triton-X100; SDS-PAGE, Coomassie (Fig 5G also anti-His Western blot). Particulars: both partners purified. (In general: Immunoblotting shows a protein as a band on a membrane.)
Series [2] concerns the molecule itself. The series can be described thus: SEC; gel filtration of purified GST-BmVreteno-L and -S (Superdex 75 and 200 16/60 pg, 25 mM Na-Hepes, 300 mM NaCl, 10% glycerol, pH 7.4); protein associated with nucleic acids.

With B1, in series [1], the binding result is listed as “binds”. Turning to B2, the binding result in series [2] is listed as “binds”.

(Values after article PMC10711660, “An extended Tudor domain within Vreteno interconnects Gtsf1L and Ago3 for piRNA biogenesis in Bombyx mori” (The EMBO Journal, 2023).)
